Data: the supplement of paper PMC10065799, “High-throughput profiling of sequence recognition by tyrosine kinases and SH2 domains using bacterial peptide display” (eLife, 2023)

Legend:
SHP2-C SH2 = assay: SH2 binding enrichment of the phosphorylated peptide, bacterial display (enrichment ratio); higher = better substrate or ligand; peptides without Tyr show the background
Grb2 SH2 = Grb2 SH2 (UniProt P62993); assay: as above
c-Src SH2 = assay: as above
Fes = Fes (UniProt P07332); assay: phosphorylation enrichment, bacterial display (enrichment ratio); higher = better substrate or ligand; peptides without Tyr show the background
Sequence of Fes (P07332 whole entry, looked up): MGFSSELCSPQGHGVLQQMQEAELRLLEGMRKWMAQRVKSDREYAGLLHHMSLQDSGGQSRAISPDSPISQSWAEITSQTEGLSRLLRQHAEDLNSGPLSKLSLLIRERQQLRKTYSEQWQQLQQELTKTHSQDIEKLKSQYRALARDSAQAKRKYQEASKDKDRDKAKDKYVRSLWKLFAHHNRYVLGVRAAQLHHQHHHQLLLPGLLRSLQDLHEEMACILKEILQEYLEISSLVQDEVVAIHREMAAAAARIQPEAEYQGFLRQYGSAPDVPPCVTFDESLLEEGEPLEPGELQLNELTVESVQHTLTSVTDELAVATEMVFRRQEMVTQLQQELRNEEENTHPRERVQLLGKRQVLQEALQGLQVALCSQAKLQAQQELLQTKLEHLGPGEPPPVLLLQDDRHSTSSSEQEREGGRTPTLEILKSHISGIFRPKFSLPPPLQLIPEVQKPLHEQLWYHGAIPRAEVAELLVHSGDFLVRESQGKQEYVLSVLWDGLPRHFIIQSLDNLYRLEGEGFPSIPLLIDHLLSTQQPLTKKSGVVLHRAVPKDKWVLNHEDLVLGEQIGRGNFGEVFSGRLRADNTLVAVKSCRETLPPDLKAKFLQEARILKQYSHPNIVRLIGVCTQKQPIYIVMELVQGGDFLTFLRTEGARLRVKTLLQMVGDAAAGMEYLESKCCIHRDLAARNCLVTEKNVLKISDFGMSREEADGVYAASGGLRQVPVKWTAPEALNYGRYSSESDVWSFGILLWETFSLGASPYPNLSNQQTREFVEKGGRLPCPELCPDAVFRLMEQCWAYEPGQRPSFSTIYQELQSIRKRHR

MERTK = MERTK (UniProt Q12866); assay: as above
Sequence of MERTK (Q12866 whole entry, looked up): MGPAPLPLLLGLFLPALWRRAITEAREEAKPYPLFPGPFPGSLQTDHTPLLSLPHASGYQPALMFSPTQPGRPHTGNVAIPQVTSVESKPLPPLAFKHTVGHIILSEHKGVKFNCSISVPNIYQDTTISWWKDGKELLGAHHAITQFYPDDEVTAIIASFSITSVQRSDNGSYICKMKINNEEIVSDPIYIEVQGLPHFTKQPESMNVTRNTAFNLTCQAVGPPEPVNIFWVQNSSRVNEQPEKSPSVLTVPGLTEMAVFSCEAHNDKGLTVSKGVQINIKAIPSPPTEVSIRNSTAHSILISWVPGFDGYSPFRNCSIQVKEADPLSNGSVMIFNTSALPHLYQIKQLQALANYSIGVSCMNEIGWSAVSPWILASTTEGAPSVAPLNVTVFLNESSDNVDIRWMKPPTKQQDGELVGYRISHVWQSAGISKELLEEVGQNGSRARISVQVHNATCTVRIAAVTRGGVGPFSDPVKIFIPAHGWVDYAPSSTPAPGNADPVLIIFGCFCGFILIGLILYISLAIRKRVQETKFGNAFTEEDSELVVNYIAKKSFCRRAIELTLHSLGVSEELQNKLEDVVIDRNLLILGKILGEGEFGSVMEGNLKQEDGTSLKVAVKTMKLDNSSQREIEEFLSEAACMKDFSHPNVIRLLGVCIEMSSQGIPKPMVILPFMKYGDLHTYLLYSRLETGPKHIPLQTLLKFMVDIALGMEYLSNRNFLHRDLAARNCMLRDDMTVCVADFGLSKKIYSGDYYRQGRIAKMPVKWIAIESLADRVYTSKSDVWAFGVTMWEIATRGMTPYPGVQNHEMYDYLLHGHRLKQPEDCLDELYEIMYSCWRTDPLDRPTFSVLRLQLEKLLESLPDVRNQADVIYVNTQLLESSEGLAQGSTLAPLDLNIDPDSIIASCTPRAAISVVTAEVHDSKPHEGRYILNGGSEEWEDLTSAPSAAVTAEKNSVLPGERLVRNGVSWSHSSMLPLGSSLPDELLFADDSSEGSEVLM

EPHB1 = EPHB1 (UniProt P54762); assay: as above
Sequence of EPHB1 (P54762 whole entry, looked up): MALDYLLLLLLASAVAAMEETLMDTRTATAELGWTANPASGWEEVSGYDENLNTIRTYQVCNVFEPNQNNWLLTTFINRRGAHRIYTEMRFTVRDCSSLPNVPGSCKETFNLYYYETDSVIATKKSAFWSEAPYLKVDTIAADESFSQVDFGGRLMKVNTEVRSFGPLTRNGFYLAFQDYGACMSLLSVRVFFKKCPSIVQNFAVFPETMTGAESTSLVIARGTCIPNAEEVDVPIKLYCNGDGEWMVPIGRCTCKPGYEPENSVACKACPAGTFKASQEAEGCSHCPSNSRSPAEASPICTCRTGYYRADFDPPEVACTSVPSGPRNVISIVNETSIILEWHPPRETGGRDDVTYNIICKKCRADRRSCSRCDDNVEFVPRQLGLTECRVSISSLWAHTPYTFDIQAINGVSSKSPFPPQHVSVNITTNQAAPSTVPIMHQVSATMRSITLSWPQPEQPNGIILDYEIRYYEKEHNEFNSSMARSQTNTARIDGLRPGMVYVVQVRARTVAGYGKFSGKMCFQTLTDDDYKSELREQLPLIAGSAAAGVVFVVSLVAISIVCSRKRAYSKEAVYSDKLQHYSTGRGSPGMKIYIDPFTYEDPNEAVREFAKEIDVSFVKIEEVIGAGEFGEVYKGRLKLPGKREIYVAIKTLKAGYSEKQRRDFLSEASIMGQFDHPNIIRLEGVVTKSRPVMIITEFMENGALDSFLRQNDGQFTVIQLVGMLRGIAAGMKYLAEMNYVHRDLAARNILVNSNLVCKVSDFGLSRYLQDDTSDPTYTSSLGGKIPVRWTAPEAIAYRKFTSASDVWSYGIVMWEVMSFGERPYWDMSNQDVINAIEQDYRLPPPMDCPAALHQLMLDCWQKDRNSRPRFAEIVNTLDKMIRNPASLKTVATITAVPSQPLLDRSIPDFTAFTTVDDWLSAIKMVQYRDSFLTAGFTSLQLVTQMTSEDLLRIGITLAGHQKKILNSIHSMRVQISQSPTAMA

FGFR3 = FGFR3 (UniProt P22607); assay: as above
Sequence of FGFR3 (P22607 whole entry, looked up): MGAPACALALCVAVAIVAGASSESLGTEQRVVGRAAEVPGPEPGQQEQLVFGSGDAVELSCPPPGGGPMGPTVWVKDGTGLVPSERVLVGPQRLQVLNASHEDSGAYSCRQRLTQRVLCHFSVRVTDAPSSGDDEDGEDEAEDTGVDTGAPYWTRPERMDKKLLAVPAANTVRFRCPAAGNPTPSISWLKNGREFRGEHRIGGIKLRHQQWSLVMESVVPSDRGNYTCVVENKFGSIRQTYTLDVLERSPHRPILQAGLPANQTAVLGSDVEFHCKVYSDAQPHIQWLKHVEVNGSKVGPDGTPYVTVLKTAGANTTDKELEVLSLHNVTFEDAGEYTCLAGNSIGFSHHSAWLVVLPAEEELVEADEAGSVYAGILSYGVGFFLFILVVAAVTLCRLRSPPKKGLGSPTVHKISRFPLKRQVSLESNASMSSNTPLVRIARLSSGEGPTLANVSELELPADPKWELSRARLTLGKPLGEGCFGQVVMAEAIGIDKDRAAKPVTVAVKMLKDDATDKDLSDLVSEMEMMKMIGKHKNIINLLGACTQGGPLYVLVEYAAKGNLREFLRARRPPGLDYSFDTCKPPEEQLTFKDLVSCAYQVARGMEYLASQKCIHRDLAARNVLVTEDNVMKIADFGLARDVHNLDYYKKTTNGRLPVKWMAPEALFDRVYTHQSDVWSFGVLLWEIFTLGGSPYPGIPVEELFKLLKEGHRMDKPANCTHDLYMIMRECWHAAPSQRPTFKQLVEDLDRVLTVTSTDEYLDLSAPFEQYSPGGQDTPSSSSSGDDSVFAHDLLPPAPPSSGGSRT

Jak2 = Jak2 (UniProt O60674); assay: as above
EPHB2 = EPHB2 (UniProt P29323); assay: as above
c-Abl (mouse) = assay: as above
Hck = Hck (UniProt P08631); assay: as above
Sequence of Hck (P08631 whole entry, looked up): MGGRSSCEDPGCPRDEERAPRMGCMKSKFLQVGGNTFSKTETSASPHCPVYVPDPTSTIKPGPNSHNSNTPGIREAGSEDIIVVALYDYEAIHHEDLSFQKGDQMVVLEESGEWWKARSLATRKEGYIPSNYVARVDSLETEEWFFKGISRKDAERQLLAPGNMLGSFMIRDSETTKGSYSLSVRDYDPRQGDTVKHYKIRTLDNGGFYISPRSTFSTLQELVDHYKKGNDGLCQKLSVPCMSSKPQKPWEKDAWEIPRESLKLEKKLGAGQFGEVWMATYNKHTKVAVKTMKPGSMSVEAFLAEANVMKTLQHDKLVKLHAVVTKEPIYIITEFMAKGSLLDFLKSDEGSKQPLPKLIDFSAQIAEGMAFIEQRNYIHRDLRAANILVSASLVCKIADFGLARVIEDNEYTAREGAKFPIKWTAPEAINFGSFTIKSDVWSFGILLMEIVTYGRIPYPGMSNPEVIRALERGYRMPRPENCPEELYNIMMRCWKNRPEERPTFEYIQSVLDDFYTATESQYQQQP

c-Src = assay: as above
AncSZ = assay: as above
Fer (mouse) = assay: as above
FGFR1 = FGFR1 (UniProt P11362); assay: as above
Fyn = Fyn (UniProt P06241); assay: as above
Sequence of Fyn (P06241 whole entry, looked up, the tested form may be a part): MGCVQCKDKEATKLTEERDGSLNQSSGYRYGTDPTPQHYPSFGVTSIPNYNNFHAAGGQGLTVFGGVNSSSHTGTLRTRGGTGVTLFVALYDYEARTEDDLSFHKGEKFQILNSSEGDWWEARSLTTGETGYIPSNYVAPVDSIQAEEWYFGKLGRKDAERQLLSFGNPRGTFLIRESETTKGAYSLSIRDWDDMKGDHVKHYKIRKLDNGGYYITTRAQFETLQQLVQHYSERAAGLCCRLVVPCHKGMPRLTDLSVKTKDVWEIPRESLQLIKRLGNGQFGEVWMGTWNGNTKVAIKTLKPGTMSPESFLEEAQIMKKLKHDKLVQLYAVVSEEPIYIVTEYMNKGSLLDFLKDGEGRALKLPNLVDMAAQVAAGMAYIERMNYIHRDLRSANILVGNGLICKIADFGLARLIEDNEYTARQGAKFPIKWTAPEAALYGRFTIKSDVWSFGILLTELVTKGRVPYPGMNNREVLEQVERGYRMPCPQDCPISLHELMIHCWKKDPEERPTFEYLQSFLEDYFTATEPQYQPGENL
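Throughout, for SH2 binding enrichment of the phosphorylated peptide, bacterial display: peptide library displayed on the E. coli surface as eCPX fusions, selected cells deep-sequenced, score is each peptide's frequency after selection divided by its frequency in the input.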
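Throughout, for phosphorylation enrichment, bacterial display: 11-residue human phosphosite peptides and single-mutation variants displayed on the E. coli surface, counted by deep sequencing, each peptide's frequency after selection divided by its frequency in the unselected input library; frequency after pTyr selection over input frequency; kinase dosed for 20-30% of maximal phosphorylation in three min.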

Sequence of Grb2 SH2 (P62993 whole entry, looked up): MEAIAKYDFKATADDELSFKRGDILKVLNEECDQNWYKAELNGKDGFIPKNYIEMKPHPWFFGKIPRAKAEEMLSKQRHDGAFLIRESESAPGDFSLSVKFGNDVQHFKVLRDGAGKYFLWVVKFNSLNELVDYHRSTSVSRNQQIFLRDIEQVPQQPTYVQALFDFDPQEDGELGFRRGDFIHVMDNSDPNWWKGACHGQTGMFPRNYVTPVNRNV

| Sequence | SH2 binding enrichment (SHP2-C SH2) | SH2 binding enrichment (Grb2 SH2) | SH2 binding enrichment (c-Src SH2) | phosphorylation enrichment (Fes) | phosphorylation enrichment (MERTK) | phosphorylation enrichment (EPHB1) | phosphorylation enrichment (FGFR3) | phosphorylation enrichment (Jak2) | phosphorylation enrichment (EPHB2) | phosphorylation enrichment (c-Abl (mouse)) | phosphorylation enrichment (Hck) | phosphorylation enrichment (c-Src) | phosphorylation enrichment (AncSZ) | phosphorylation enrichment (Fer (mouse)) | phosphorylation enrichment (FGFR1) | phosphorylation enrichment (Fyn) |
| --- | --- | --- | --- | --- | --- | --- | --- | --- | --- | --- | --- | --- | --- | --- | --- | --- |
| TNFSLYLRSLE [MTM1_Y71_R69S_YF] | 0.91 | 0.708 | 0.687 | 1.38 | 0.42 | 0.754 | 0.744 | 1.36 | 0.491 | 0.908 | 0.432 | 0.385 | 1.2 | 0.438 | 0.41 | 0.368 |
| KLRMESLSLMH [NCKIPSD_Y660_Y660S] | 0.923 | 1.15 | 0.746 | 0.782 | 0.436 | 0.423 | 0.476 | 0.644 | 0.483 | 0.508 | 0.415 | 0.457 | 0.658 | 0.388 | 0.453 | 0.45 |
| QLAPQYTFTQG [FLNA_Y1761_A1764T_YF] | 0.5 | 0.915 | 0.635 | 1.09 | 1.1 | 0.621 | 0.982 | 1.21 | 0.845 | 1.49 | 0.748 | 1.12 | 1.27 | 0.58 | 0.918 | 1.09 |
| SLVGCYNLTFM [HS6ST3_Y323] | 0.553 | 0.599 | 0.432 | 1.56 | 0.498 | 0.694 | 0.95 | 1.39 | 0.868 | 1.12 | 0.745 | 0.794 | 1.42 | 1.29 | 0.589 | 0.694 |
| LWQSIYNLEAE [TNNT2_Y251] | 1.48 | 1.09 | 0.54 | 1.45 | 0.664 | 0.793 | 1.05 | 0.921 | 0.791 | 0.881 | 7.01 | 6.57 | 1.33 | 0.544 | 0.66 | 12.4 |
| HMEAVYIDIAD [PITPNA_Y140_V136M] | 0.847 | 1.23 | 0.696 | 2.85 | 1.43 | 9.76 | 10.2 | 2.26 | 5.08 | 1.06 | 2.85 | 3.62 | 3.91 | 8.49 | 13.6 | 3.86 |
| ETSHNYHKFDS [MATR3_Y243] | 0.881 | 0.623 | 1.11 | 0.551 | 0.393 | 0.416 | 0.475 | 0.662 | 0.451 | 0.61 | 0.395 | 0.475 | 0.463 | 0.372 | 0.393 | 0.401 |
| GLRYGYGVLGG [KRTAP20-2_Y15] | 0.769 | 0.933 | 0.723 | 0.605 | 0.413 | 0.407 | 0.497 | 0.586 | 0.398 | 0.487 | 0.443 | 0.9 | 0.596 | 0.432 | 0.447 | 0.495 |
| LGRKLYSIAAP [ABHD12_Y345] | 0.583 | 0.788 | 0.593 | 1.13 | 1.04 | 0.664 | 1.12 | 2.38 | 1.04 | 0.892 | 0.73 | 0.647 | 1.3 | 0.952 | 0.543 | 0.737 |
| CEHRGSLYLAI [TEK_Y897_Y897S] | 0.678 | 0.795 | 0.519 | 1.24 | 1.24 | 0.714 | 0.847 | 1.16 | 0.585 | 0.933 | 0.606 | 0.891 | 1.13 | 0.573 | 0.609 | 0.552 |
| PEADKYHLTFA [FGG_Y300_R301H_YF] | 0.254 | 0.637 | 0.301 | 1.8 | 0.75 | 2.12 | 1.5 | 1.98 | 0.788 | 2.22 | 0.939 | 1.03 | 1.88 | 0.802 | 0.725 | 0.73 |
| PVDVAYRHGFF [PLEC_Y2967_R2969H_YF] | 0.576 | 0.722 | 0.552 | 0.85 | 0.366 | 0.32 | 0.458 | 0.511 | 0.268 | 0.473 | 0.553 | 0.325 | 0.482 | 0.342 | 0.574 | 0.324 |
| WVFNHYRWIIW [BRCA2_Y2624_YF] | 0.776 | 1.09 | 0.717 | 1.39 | 0.437 | 0.611 | 0.824 | 1.36 | 0.536 | 0.862 | 0.403 | 0.432 | 1.29 | 0.456 | 0.452 | 0.343 |
| HEVHIYENSGA [ARPC1B_Y35_K37N] | 1.03 | 12.4 | 6.64 | 2.27 | 0.826 | 1.38 | 0.892 | 1.31 | 1.28 | 1.32 | 1.62 | 0.865 | 1.44 | 1.26 | 0.703 | 1.04 |
| LDYNEYFRGLN [HPRT1_Y198_D201G] | 0.812 | 0.865 | 0.445 | 1.95 | 0.733 | 1.28 | 1.85 | 3.42 | 1.37 | 0.847 | 2.6 | 0.892 | 2.67 | 1.06 | 2.77 | 1.6 |
| PSRKDYETYQS [CTNND2_Y1154_P1159S] | 0.899 | 0.976 | 0.746 | 1.17 | 0.474 | 0.827 | 0.704 | 0.94 | 1.03 | 0.729 | 0.764 | 0.948 | 0.875 | 0.55 | 0.539 | 0.543 |
| DFSLKYPTDIP [APC_Y1183_A1184P_YF] | 0.618 | 0.768 | 0.386 | 1.18 | 0.52 | 0.528 | 0.685 | 0.943 | 0.599 | 0.702 | 0.46 | 0.534 | 1.03 | 0.616 | 0.459 | 0.452 |
